Among the data in KR20170011863A are EC50 (effective concentration) of inhibition of HBV infection of HepG2-NTCP cells and EC50 (effective concentration) of inhibition of HBV infection of HepG2-NTCP cells, converted to molar concentration (150 kDa) values, retold here.

Substrate in this test: B형 간염 바이러스의 표면 항원 (Hepatitis B surface antigen; HBsAg) (Hepatitis B virus)
The test is described as follows: cell-based or functional assay.

B1: GC1102 (HBsAg에 대한 인간 HBV 항체) (antibody, V domains shown)
VH: QVKLLESGGGLVKPGGSLRLSCSASGFSLTKYKMTWVRQAPGKGLEWVSSISSTSRDIDYADSVKGRFTISRDNAKNSLFLQMSSLRVDDTAVYYCTRDGWLWGWDVRSNYYYNALDVWGQGTTVTVSS
VL: ELVMTQSPSSLSASVGDRVTITCRASQGIYNSIAWYQQKPGKAPKLLLYSTSTLLSGVPSRFSGSGSGTDYTLTITNLQPEDFATYYCQQYFVTPETFGQGTKVEIKR
In the case of B1, the EC50 (effective concentration) of inhibition of HBV infection of HepG2-NTCP cells was 0.015 µg/mL and the EC50 (effective concentration) of inhibition of HBV infection of HepG2-NTCP cells, converted to molar concentration (150 kDa) came out at 0.1 nM.
